Reference: paper PMC10293821

Legend:
[1] = target: histidine-rich protein II (HRPII) purified from conditioned media of cultured P. falciparum (P. falciparum strain 3D7); assay: AUC
[2] = target: apo recombinant HRPII mutant with a 4 amino acid C terminus truncation (P. falciparum); assay: AUC

histidine-rich protein II (HRPII) purified from conditioned media of cultured P. falciparum (natural protein)
stoichiometry N [1]: 14

apo recombinant HRPII mutant with a 4 amino acid C terminus truncation (domain or fragment)
stoichiometry N [2]: 3
